B1: KCNE4-CFP [mouse] / KCNE4-YFP [mouse] (parent)
chain 1: MLRMEPLNSTYPSAAASSSPLESHVPSNSSGNGNEYFYILVVMSFYGVFLIGIMLGYMKSKRREKKSSLLLLYKDEERLWGEAMKPLPMMSGLRSGQVPMMLNMLQESVAPALSCTLCSMEGDSVSSESSSPDVHLPIQEEGADDELEETSETPLNDSSEGSSENIHQNS
chain 2: B1 chain 1

Variants of: B1
Assay: FRET (CFP/YFP) in cells
Conditions: with KCNE4-YFP [mouse]; HEK-293 cells; n > 25 cells; parent: 12; read off a plot

Row | response [%] | Variant
1 | 7.2 | chain 1 L69A L70A L71A L72A

Reference: PMC8263776, “Calmodulin-dependent KCNE4 dimerization controls membrane targeting” (Scientific Reports, 2021)
